Experimental findings from PMC9718833 are described below.

For test [1], the target named is Gi3 heterotrimer of the BRET-based Gi-activation sensor (Gai3-RlucII / GFP10Gγ2 / Gβ1) (UniProt P08754).
The target in test [2] is Gs protein (human (endogenous in HEK293T)) (UniProt P63092).
Chain of UniProt P63092 (P63092 whole entry, looked up): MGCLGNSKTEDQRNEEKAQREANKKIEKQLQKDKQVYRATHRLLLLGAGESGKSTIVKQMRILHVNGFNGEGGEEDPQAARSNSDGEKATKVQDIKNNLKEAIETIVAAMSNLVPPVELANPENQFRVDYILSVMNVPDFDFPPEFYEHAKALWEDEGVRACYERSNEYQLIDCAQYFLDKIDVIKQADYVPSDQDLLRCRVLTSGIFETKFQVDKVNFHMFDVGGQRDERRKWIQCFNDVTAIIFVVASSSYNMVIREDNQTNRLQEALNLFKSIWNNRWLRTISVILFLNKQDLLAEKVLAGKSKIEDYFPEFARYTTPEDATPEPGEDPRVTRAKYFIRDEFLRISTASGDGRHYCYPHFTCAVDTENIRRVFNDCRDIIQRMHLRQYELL

Chain of UniProt P08754 (P08754 whole entry, chain 1 of 3): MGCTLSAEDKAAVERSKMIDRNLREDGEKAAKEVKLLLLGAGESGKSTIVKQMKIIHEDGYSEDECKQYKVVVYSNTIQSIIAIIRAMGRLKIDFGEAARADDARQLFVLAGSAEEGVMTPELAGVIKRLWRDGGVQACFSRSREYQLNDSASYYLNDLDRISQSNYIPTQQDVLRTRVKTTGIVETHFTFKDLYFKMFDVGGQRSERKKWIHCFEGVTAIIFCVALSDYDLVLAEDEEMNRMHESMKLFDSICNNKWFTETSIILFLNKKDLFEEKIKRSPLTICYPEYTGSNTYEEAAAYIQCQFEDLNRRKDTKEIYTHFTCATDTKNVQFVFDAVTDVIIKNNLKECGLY
Chain of UniProt P08754 (P62873 whole entry, chain 2 of 3, further chain): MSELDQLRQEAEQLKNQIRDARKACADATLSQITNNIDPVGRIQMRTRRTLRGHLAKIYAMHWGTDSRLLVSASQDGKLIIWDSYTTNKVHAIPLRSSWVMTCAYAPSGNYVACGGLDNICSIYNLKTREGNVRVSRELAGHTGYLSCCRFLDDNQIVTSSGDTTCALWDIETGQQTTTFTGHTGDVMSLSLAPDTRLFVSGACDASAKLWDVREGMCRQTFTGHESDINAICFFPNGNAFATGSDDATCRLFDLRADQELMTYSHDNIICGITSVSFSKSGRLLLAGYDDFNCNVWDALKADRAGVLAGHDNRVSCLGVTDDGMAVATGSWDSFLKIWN
Chain of UniProt P08754 (P59768 whole entry, chain 3 of 3, further chain): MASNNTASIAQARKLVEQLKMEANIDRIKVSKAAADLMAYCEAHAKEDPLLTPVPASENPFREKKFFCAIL

In turn, “HA-tagged human M1 muscarinic acetylcholine receptor (CHRM1) A424K (from UniProt P11229 1-460)” yielded an increase of the Emax of CHRM1 activation of Gi compared to WT CHRM1, BRET-based Gi-activation (Gi3) sensor in HEK293T, carbachol (% increase of Emax against WT) in test [1] of 31.
Still for that read-out and setting: the result for “HA-tagged human M1 muscarinic acetylcholine receptor (CHRM1) E221K (from UniProt P11229 1-460)” reads 30.
“HA-tagged human M1 muscarinic acetylcholine receptor (CHRM1) L131F (from UniProt P11229 1-460)” returned an increase of the Emax of Gs-dependent cAMP production following carbachol, EPAC-BRET sensor in HEK293T with 500 nM of the Gq inhibitor YM-254890, against WT CHRM1 (% increase of Emax) in test [2] of 51.
In test [2], “HA-tagged human M1 muscarinic acetylcholine receptor (CHRM1) R218Q (from UniProt P11229 1-460)” returned an increase of the Emax of Gs-dependent cAMP production following carbachol, EPAC-BRET sensor in HEK293T with 500 nM of the Gq inhibitor YM-254890, against WT CHRM1 (% increase of Emax) of 17.
